Assay results: patent US8598320B2, “Anti-PCSK9 and methods for treating lipid and cholesterol disorders” (Merck Sharp & Dohme Corp., priority 2007, dated 2013)
Residue numbers refer to the chain shown, from its start. Where “and” joins values, the source holds several entries; their conditions need not be identical. Identical values can stand only once. Marks after values point to notes of the source that are not given here. One block for each molecule: values may come before it.

Columns and labels:
PCSK9/LDLR interaction = PCSK9/LDLR interaction (Homo sapiens, UniProt Q8NBP7); assay: Alphascreen binding assay: inhibition of PCSK9/LDLR interaction (Example 3)
Source text: An Amplified Luminescent Proximity Homogeneous Assay (ALPHA, Perkin-Elmer; Waltham, Mass.) capable of directly determining the interaction between PCSK9-FLAG and a putative binding partner was used to determine the effect of anti-PCSK9 antibodies on this interaction. This technique required that “donor” and “acceptor” beads be brought into proximity via protein-protein interaction, resulting in increased luminescence (Ullman et al., Proc. Nat. Acad. Sci. (1994) 91:5426-5430). In the basic assay, LDL receptor binding to PCSK9 was determined as follows: 5 μl of recombinant receptor at the appropriate concentrations was incubated with 2.5 μl PCSK9-FLAG (1.4 μg/ml, 30 min). About 2.5 μl of biotinylated anti-Flag-M2 antibody (1.8 μg/ml) was added and the mixture incubated for 1 hour. Afterward 5 μl of streptavidin donor bead and nickel chelate acceptor bead (1:1 mixture) was added and the assay incubated overnight. AlphaScreen signal (counts per second) was analyzed using an EnVision microplate reader (Perkin-Elmer). All data points were determined in triplicate. Assays were carried out at 23° C. in buffer containing 25 mM HEPES, 0.1 M NaCl, pH 7.4, 0.1% BSA. The inhibition assays were determined similarly with slight adjustments to assay volumes and protein concentrations. Briefly, 5 μl of 1.25 μg/ml of PCSK9-Flag and 1.25 μg/ml of His-tagged LDL receptor was incubated with 2.5 μl of antibody at the appropriate concentrations for 30 minutes followed by the addition of 2.5 μl of anti-Flag-BioM2 (1.8 μg/ml) and a 1 hour incubation.

PCSK9 [1] = target: T1, PCSK9 (Homo sapiens, UniProt Q8NBP7); assay: In-cell western: inhibition of PCSK9-mediated LDLR degradation in HepG2 cells; format: cell-based; parameters: The protein was added exogenously to HepG2 cells; key to Relative level of inhibition of LDLR degradation observed: Greater number of + symbols indicates a greater level of inhibition relative to other treatments.; ++: Greater number of + symbols indicates a greater level of inhibition relative to other treatments.; +++: Greater number of + symbols indicates a greater level of inhibition relative to other treatments; settings: for Relative level of inhibition of LDLR degradation observed: PCSK9 100 nM, 18 hours, LDLR normalized to β-actin
Method: The 75B9, 77D10, 11B5, 22D11, 1F11/1G11 and 29C10 antibodies were evaluated in an in-cell western assay for their ability to inhibit the degradation of the LDL receptor by PCSK9 in HepG2 cells.
In-cell western was performed to quantitate anti-PCSK9 antibody inhibition of PCSK9-mediated LDLR degradation. HepG2 cells were seeded in 384-well collagen I coated plates and treated with anti-PCSK9 antibody and/or PCSK9 (100 nM) for 18 hours. Detection of LDLR and β-actin was performed according to the manufacturer's protocol (Li-Cor Biosciences; Lincoln, Nebr.) using the antibodies described above in conjunction with IRDye 800CW goat anti-rabbit (Li-Cor) and IRDye 680 goat anti-mouse (Li-Cor). The assay was read on an Odyssey infrared imaging system (Li-Cor) and the signal for LDLR protein in each well normalized to β-actin content.

PCSK9 [2] = target: T1, PCSK9; assay: In vivo inhibition of liver LDLR degradation in mice (Western blot); parameters: host or cells: Exogenous protein injected into male C57BL/6J mice; settings: for LDLR/GAPDH / LDLR (band intensity): liver, individual mice 107-110; for LDLR (band intensity): 400 μg antibody i.p., 10 μg human PCSK9 i.v.; for Mean LDLR/GAPDH: Antibody and PCSK9 group; for % Change: mean LDLR/GAPDH vs. Saline only control
Method: (§1) The ability of an anti-PCSK9 antibody (1F11/1G11) to inhibit LDL receptor degration in mice was evaluated in these assays along with the ability of the antibodies to modulate cholesterol levels.
(§2) Time-0: Male C57BL16j mice were injected, intraperitoneal, with 400 μg of anti-human PCSK9 Antibody, 1F11/1G11. • Time-2 hours: Mice were then injected, intravenously, with 10 μg of human PCSK9 Protein. • Time-4 hours: Mice were terminated and plasma and liver samples were collected. Analysis:
Protein levels of Liver LDL Receptor were determined by Western Blot. 40 μg of each liver homogenate was separated on an Invitrogen 4-12% NuPAGE gel, transferred to PVDF membrane and incubated with goat anti-mouse LDL receptor antibody (rabbit anti-GAPDH antibody was used as a control for equal loading). Membranes were then incubated with corresponding HRP-linked antibodies and visualization was accomplished with high performance chemiluminescence film. Band intensities were quantified using ImageQuant 5.2 software.
LDL receptor levels were expressed in Arbitrary Units (AU) as a ratio of LDL receptor band intensity to GAPDH band intensity. Two separate analyses of the data are presented, […]

PCSK9 [3] = target: T1, PCSK9; assay: Plasma cholesterol in mice injected with human PCSK9; format: in vivo; parameters: host or cells: Exogenous protein injected into male C57BL/6J mice; settings: Male C57BL16j mice; 400 μg antibody i.p., 10 μg human PCSK9 i.v. at 2 hours; plasma at 4 hours
Method: as §1, §2
Plasma lipoprotein profiles of individual mice (0.1 mL plasma) were determined by fast protein liquid chromatography (FPLC) with a Pharmacia Superose 6 column. FPLC fraction cholesterol levels were determined using Wako Cholesterol Enzymatic colorimetric method.

T1 sequence (Q8NBP7 153-692): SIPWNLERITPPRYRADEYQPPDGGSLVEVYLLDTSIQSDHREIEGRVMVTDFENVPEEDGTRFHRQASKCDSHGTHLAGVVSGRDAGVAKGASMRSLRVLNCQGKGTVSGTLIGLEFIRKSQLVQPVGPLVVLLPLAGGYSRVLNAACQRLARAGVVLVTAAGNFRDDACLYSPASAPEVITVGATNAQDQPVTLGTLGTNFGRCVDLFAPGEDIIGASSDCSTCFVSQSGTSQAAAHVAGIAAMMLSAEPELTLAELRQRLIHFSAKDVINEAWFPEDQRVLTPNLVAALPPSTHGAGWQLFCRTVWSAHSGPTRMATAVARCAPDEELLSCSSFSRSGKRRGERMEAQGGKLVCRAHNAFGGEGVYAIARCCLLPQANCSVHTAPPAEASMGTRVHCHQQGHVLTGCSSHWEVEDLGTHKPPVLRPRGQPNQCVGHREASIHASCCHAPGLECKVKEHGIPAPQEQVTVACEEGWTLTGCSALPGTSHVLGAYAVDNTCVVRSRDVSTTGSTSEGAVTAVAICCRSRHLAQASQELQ
Sequence of PCSK9/LDLR interaction (Q8NBP7 153-692): as above
Sequence of PCSK9/LDLR interaction (Q8NBP7 31-152 partner limits assumed): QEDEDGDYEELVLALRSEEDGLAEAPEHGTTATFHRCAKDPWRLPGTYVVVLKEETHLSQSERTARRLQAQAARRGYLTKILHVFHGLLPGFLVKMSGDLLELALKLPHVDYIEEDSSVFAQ

B2: 22D11: anti-human PCSK9 antibody (IgG1); heavy chain SEQ ID NO: 42, light chain SEQ ID NO: 46 (antibody, listed as Mus musculus, V domains shown)
VH: EVQLVDSGGGLVQPGRSLKLSCAASGFTFSNHDMAWVRQAPTKGLEWVASITPSGGTTYYRDSVEGRFTVSRDNVKSSLHLQMDSLTSEDTATYYCARQNYYDGSYYYGLYYFDYWGQGVMVTVSS
VL: DVLMTQTPVSLPVSLGGQVSISCRSSQSLVYSDGNTYLHWYLQKPGQSPQLLIYRVSNRFSGVPDRFSGSGSGTDFTLKISRVEPEDLGLYYCLQSTHFPPTFGSGTKLEIKRA
- Inhibition of PCSK9/LDL receptor interaction (in words) (PCSK9/LDLR interaction): effectively inhibit interaction between PCSK9 and the LDL receptor
- Inhibition of PCSK9-mediated LDL receptor degradation (in words) (PCSK9 [1]): inhibit PCSK9-mediated LDL receptor degradation
- Relative level of inhibition of LDLR degradation observed (PCSK9 [1]): +

B4: 11B5: mouse anti-human PCSK9 antibody (IgG2a); heavy chain SEQ ID NO: 10, light chain SEQ ID NO: 14 (antibody, listed as Mus musculus, V domains shown)
VH: EVQLQQSGAELVKPGASVTLSCTASGFNIKDTYMHWVNQRPEQGLVWIGRIDPANGHTEYDPKFQDKATITTDTSSNTAYLHLSSLTSGDTAVYYCARSYFGSIFAYWGQGTLVTVSA
VL: QIVLTQSPAIMSASPGEKVTISCSASSSVSYLYWYQQKPGSSPKPWIFRSSHRASGVPARFSGSGSGTSYSLTISSMEAEDAATYYCHQYQSYPPTFGGGTKLEIKRA
- Inhibition of PCSK9/LDL receptor interaction (in words) (PCSK9/LDLR interaction): effectively inhibit interaction between PCSK9 and the LDL receptor
- Inhibition of PCSK9-mediated LDL receptor degradation (in words) (PCSK9 [1]): inhibit PCSK9-mediated LDL receptor degradation
- Relative level of inhibition of LDLR degradation observed (PCSK9 [1]): ++

B6: 1F11/1G11: mouse anti-human PCSK9 antibody (IgG2a); heavy chain SEQ ID NO: 50, light chain SEQ ID NO: 54 (antibody, listed as Mus musculus, V domains shown)
VH: EVQLQQSGPELVKPGASVKISCKVSGYTFTDYYMNWVKQSHGKSLEWIGDINPNNGGAIYNQKFKGKATLTVDKSSSIAYMELRSLTSEDSAVYYCTSGIITEIAEDFWGQGTTLTVSS
VL: DIVMTQSQKFMSTSVGDRVSVTCKASQNVGTNVVWYQQKPGQSPKALIHSASYRYSGVPDRFKGSGSGTDFTLTITNVQSEDLAGFFCQQYKTYPYTFGGGTQLEIKRA
- Inhibition of PCSK9/LDL receptor interaction (in words) (PCSK9/LDLR interaction): effectively inhibit interaction between PCSK9 and the LDL receptor
- % inhibition at 450 nM of antibody (PCSK9/LDLR interaction; 450 nM antibody, relative to the assay with no antibody added): 88* %
- LDLR/GAPDH (PCSK9 [2]; Table 7, lightest exposure of LDLR panel vs. GAPDH panel): 0.272 AU and 0.278 AU and 0.262 AU and 0.128 AU
- LDLR (band intensity) (PCSK9 [2]; Table 7, lightest exposure of LDLR panel): 13714 and 13766 and 12508 and 5977
- Mean LDLR/GAPDH (PCSK9 [2]; Table 7, lightest exposure): 0.235 AU
- % Change (PCSK9 [2]; Table 7, lightest exposure): −48.0%
- LDLR/GAPDH (PCSK9 [2]; Table 8, darker exposure of LDLR panel vs. lightest GAPDH panel): 0.439 AU and 0.396 AU and 0.426 AU and 0.249 AU
- LDLR (band intensity) (PCSK9 [2]; Table 8, darker exposure of LDLR panel): 19883 and 18057 and 18642 and 10669
- Mean LDLR/GAPDH (PCSK9 [2]; Table 8, darker exposure): 0.377 AU
- % Change (PCSK9 [2]; Table 8, darker exposure): −35.2%
- Inhibition of PCSK9-mediated LDL receptor degradation (in words) (PCSK9 [1]): inhibit PCSK9-mediated LDL receptor degradation
- Relative level of inhibition of LDLR degradation observed (PCSK9 [1]): +++
- Plasma total cholesterol level (PCSK9 [3]): 72.05 mg/dL

Second part, led by results:

- Relative level of inhibition of LDLR degradation observed (PCSK9 [1]): +
B1: 29C10: mouse anti-human PCSK9 antibody (IgG2a); heavy chain SEQ ID NO: 34, light chain SEQ ID NO: 38 (antibody, listed as Mus musculus, V domains shown)
VH: EVLLQQSVAELVRPGASVRLSCTASGFNIKDTYIHWVRQRPEQGLEWFGWIDPANGYTKYAPNFQGKATLTTDTSSNTAYLHLSSLTSEDSAIYYCARGYYRYYSLDYWGQGTSVTVSS
VL: DIQMTQTTSSLSASLGDRVTISCRASQDISNYLNWYQQKPDGTVKLLIYYSSRLHSGVPSRFSGRGSGTDYSLTISTLEQEDIATYFCQQGKTLPLTFGAGTKLELKRA
- Inhibition of PCSK9/LDL receptor interaction (in words) (PCSK9/LDLR interaction): effectively inhibit interaction between PCSK9 and the LDL receptor
- Inhibition of PCSK9-mediated LDL receptor degradation (in words) (PCSK9 [1]): inhibit PCSK9-mediated LDL receptor degradation

- Relative level of inhibition of LDLR degradation observed (PCSK9 [1]): ++
B3: 75B9: mouse anti-human PCSK9 antibody (IgG2a); heavy chain SEQ ID NO: 18, light chain SEQ ID NO: 22 (antibody, listed as Mus musculus, V domains shown)
VH: EVQLQQSGADLVKPGASVKLSCTASGFNIKDTYIHWVKQRPEQGLEWIGRIDPANGHTEYDPKFQGRATLTTDTSSNTAYLQLFSLTSEDSAVYFCARSYYGSIFAYWGQGTLVTVSA
VL: B4 VL with Y33F, S50T, H52Y, R53L, Y70F, Q91H, S92T
- Inhibition of PCSK9/LDL receptor interaction (in words) (PCSK9/LDLR interaction): effectively inhibit interaction between PCSK9 and the LDL receptor
- Inhibition of PCSK9-mediated LDL receptor degradation (in words) (PCSK9 [1]): inhibit PCSK9-mediated LDL receptor degradation

- Relative level of inhibition of LDLR degradation observed (PCSK9 [1]): ++
B5: 77D10: mouse anti-human PCSK9 antibody (IgG2b); heavy chain SEQ ID NO: 26, light chain SEQ ID NO: 30 (antibody, listed as Mus musculus, V domains shown)
VH: EVQLQQSGAELVRSGASVKLSCTTSGFNIKDYYIHWVKQRPEQGLEWIGWIDPENGDTEYAPKFQGKATMTADTSSNTAYLQLSSLTSADTAVYYCNAYYRYDDGTWFPYWGQGTLVTVSA
VL: DIQLTQSPASLSASVGETVTITCRASGNIHSYLAWYQQKQGKSPQFLVDNAKTLPDGVPSRFSVSGSGTQYSLKINSLQPEDFGTYYCQHFWNTPWTFGGGTKLEIKRA
- Inhibition of PCSK9/LDL receptor interaction (in words) (PCSK9/LDLR interaction): effectively inhibit interaction between PCSK9 and the LDL receptor
- Inhibition of PCSK9-mediated LDL receptor degradation (in words) (PCSK9 [1]): inhibit PCSK9-mediated LDL receptor degradation
